Measurements from patent US20230322857A1, “RECOMBINANTLY ENGINEERED POLYPEPTIDES CAPABLE OF RECYCLING NONCANONICAL COFACTORS” (The Regents of the University of California, priority 2022, published 2023).
Changes are numbered by the printed parent chain. Names and notes keep the numbering of the source. “Also recorded” adds a separate entry of the source.

Assays:
[1] = Steady state kinetics of glutathione reductase (Gor) variants with NMNH; format: biochemical; settings: for Km: enzyme could not be saturated, 96 mM Tris-Cl pH 7.5, 2.5 mM GSSG
Protocol: (§1) Expression and Purification of Gor Wild-type and Variants. E. coli Gor (EC 1.6.4.2) is a homo-dimeric flavoenzyme containing 450 amino acid residues with 1 FAD per subunit. To prevent interference from endogenous protein, Gor wild-type and variants were expressed using E. coli Δgor::kan strain containing pQElac based plasmids encoding for the Gor wild-type or variants. 1% (v/v) cells from an overnight culture were cultured in 2×YT media with 200 μg/mL ampicillin and 50 μg/mL kanamycin in shake flasks at 37° C. in a rotary shaker to an OD600 of 0.4-0.6. The cultures were then induced with 0.5 mM IPTG and incubated at 30° C. with shaking for 24 h. The cells were harvested with centrifugation and lysed by bead beating with Zymo His Binding Buffer (Zymo Research, CA, USA). Protein purification was performed with Zymo His-Spin Protein miniprep purification kit according to the manufacturer's instructions. The concentrations of purified protein were quantified by Coomassie dye—based assays (Bradford) using BSA (Bovine Serum Albumin) as standards.
(§2) Specific Activity and Steady State Kinetic Analyses for Gor Wild-type and Variants. The specific activity and kinetic parameters of Gor with the different cofactors, shown in FIG. 1, were measured using the following methods. For measuring the specific activity with NMNH, the 100 μL reaction mixture contained 96 mM potassium phosphate buffer pH 7.5, 2.5 mM GSSG and 0.8 mM NMNH. NMNH was generated using methods described in Black et al. (Nat. Chem. Biol. 16:87-94 (2020). Briefly, 4 mM NMN^+ was incubated in a solution containing 50 mM Tris-Cl at pH 8.5, 0.2 mM EDTA, 50 mM Na2HPO4, 5 mM D-glyceraldehyde-3-phosphate, and 28 μM of purified E. coli glyceraldehyde-3-phosphate dehydrogenase. The reaction was incubated at 30° C. for 8 h. The protein was removed by an Amicon Ultra 3 K filter, and the flow-through was dried under vacuum. Assays investigating the steady-state kinetic parameters were completed with 100 μL reaction mixtures containing 96 mM Tris-Cl buffer pH 7.5, 2.5 mM GSSG and varied cofactor concentrations from 0.01 mM to 1.6 mM. The assay was started by addition of 10 μL of purified protein at appropriate concentration at 25° C. The kinetic parameters were measured by monitoring the NAD(P)H consumption at 340 nm in 96-well plate. Data was fit to the Michaelis-Menten equation to generate estimates of apparent catalytic efficiency (kcat/Km). The results are the average of three independent experiments.

[2] = Steady state kinetics of glutathione reductase (Gor) variants with NADPH; format: biochemical
Protocol: as §1
as §2, with “Assays investigating the steady-state kinetic parameters were completed with 100 μL reaction mixtures containing 96 mM Tris-Cl buffer pH 7.5, 2.5 mM GSSG and varied cofactor concentrations from 0.01 mM to 1.6 mM.” left out

[3] = Specific activity of Gor variants with NMNH; format: biochemical
Protocol: as §1
Specific Activity and Steady State Kinetic Analyses for Gor Wild-type and Variants. The specific activity and kinetic parameters of Gor with the different cofactors, shown in FIG. 1, were measured using the following methods. For measuring the specific activity with NMNH, the 100 μL reaction mixture contained 96 mM potassium phosphate buffer pH 7.5, 2.5 mM GSSG and 0.8 mM NMNH. […] The kinetic parameters were measured by monitoring the NAD(P)H consumption at 340 nm in 96-well plate. […]

[4] = Steady state kinetics of glutathione reductase (Gor) variants with NADH; format: biochemical; settings: for Km: enzyme could not be saturated, 96 mM Tris-Cl pH 7.5, 2.5 mM GSSG
Protocol: as §1, §2

E. coli SHuffle strain = assay: GDH-Gor coupled growth rescue in SHuffle strain; format: cell-based, Escherichia coli; settings: 0.5 mM diamide, varying NMN^+ concentrations
Protocol: Culture conditions for GDH-Gor coupled growth rescue in SHuffle strain. The electro-competent cells of SHuffle harboring pLZ311 or pLZ312 were made as follows: The SHuffle cells were cultured in 200 mL SOB media with spectinomycin at 30° C. with shaking until OD600 reached 0.4-0.6. The culture was chilled on ice for 15 min and the cells were pelleted at 4° C., 4,000×g. Collected cells were washed with 10% glycerol in water (sterile, ice cold) and resuspended with 5 mL of 10% glycerol in water (sterile, ice cold), and stored as 50 μL aliquots at −80° C.
Glucose facilitator (encoded by glf) was used for uptake of unphosphorylated glucose into the cells. The co-transformation of Bs gdh and Zm glf was performed as follows: Thaw SHuffle/pLZ311 or SHuffle/pLZ312 electro-competent cells on ice, add 1 μL Bs gdh (pEK101 or pLZ210) and 1 μL Zm glf(pSM109) plasmid DNA to 50 μL competent cells, mix, and electroporate. Cells were recovered with 1 mL SOC at 37° C. with shaking for 1 h. The cells were added to 10 mL 2×YT with 10 g/L glucose, 0.5% arabinose, kanamycin, chloramphenicol, and ampicillin. After incubation at 37° C. with shaking for 10 h, 1 mL cells were washed 3 times and re-suspended in M9 buffer (1×BD Difco M9 Salts). Targeted dilutions after cells reached density of OD600 0.6 were prepared in M9 buffer and 5 μL aliquots were dispensed in series on an agar plate of M9 selection media containing 0.5 mM diamide, 1 g/L yeast extract, 10 g/L glucose, 0.5% arabinose, 0.5 mM IPTG, ampicillin, kanamycin, chloramphenicol and serial NMN concentrations of 0, 2, 4 and 6 mM. Selection plates were incubated at 37° C., and photos were taken to document growth progress.

[5] = previously identified variant; cited from earlier work
[6] = 96 mM Tris-Cl buffer pH 7.5, 2.5 mM GSSG, varied cofactor concentrations, n = 3

B1: Gor I178T (protein, UniProt P06715 1-450, looked up, variant I178T)
Glutathione reductase: MTKHYDYIAIGGGSGGIASINRAAMYGQKCALIEAKELGGTCVNVGCVPKKVMWHAAQIREAIHMYGPDYGFDTTINKFNWETLIASRTAYIDRIHTSYENVLGKNNVDVIKGFARFVDAKTLEVNGETITADHILIATGGRPSHPDIPGVEYGIDSDGFFALPALPERVAVVGAGYTAVELAGVINGLGAKTHLFVRKHAPLRSFDPMISETLVEVMNAEGPQLHTNAIPKAVVKNTDGSLTLELEDGRSETVDCLIWAIGREPANDNINLEAAGVKTNEKGYIVVDKYQNTNIEGIYAVGDNTGAVELTPVAVAAGRRLSERLFNNKPDEHLDYSNIPTVVFSHPPIGTVGLTEPQAREQYGDDQVKVYKSSFTAMYTAVTTHRQPCRMKLVCVGSEEKIVGIHGIGFGMDEMLQGFAVALKMGATKKDFDNTVAIHPTAAEEFVTMR
[1]
  Km: > 1.5 mM
[2]; [6]
  Km: 40 ± 10 µM
  NADPH kcat: 31 ± 1 s⁻¹
[3]; 0.8 mM NMNH, 2.5 mM GSSG, vs wild type Ec Gor
  enhanced NMNH-dependent activity compared to the wild type: 4 fold
[4]
  Km: > 1.5 mM

B2: Gor: wild type glutathione reductase from Escherichia coli (SEQ ID NO:7) (protein, listed as Escherichia coli)
chain: B1 Glutathione reductase with T178I
[1]
  Km: > 1.5 mM
[2]; [6]
  Km: 60 ± 10 µM
  NADPH kcat: 84 ± 7 s⁻¹
E. coli SHuffle strain; listed as wild type Ec Gor
  growth of SHuffle strain harboring the Gor variant: robust growth independent of NMN^+ supplementation
E. coli SHuffle strain; listed as wild type Gor
  growth of SHuffle strain harboring the Gor variant: no growth defects
[4]
  Km: > 1.5 mM

B3: G174H: Ec Gor single-mutation variant predicted to make salt bridge with the NMNH phosphate group (protein, UniProt P06715 1-450, looked up, variant G174H)
Glutathione reductase: B1 Glutathione reductase with G174H, T178I
[3]; vs wild type Ec Gor
  NMNH-dependent activity (in words) compared to the wild type: enhanced NMNH-dependent activity

B4: R198M-R204L: previously identified Ec Gor variant with R198M-R204L double mutations (protein, UniProt P06715 1-450, looked up, variant R198M R204L)
Glutathione reductase: B1 Glutathione reductase with T178I, R198M, R204L
[5]
  NADPH-dependent activity: almost completely abolished

B5: Gor Ortho: recombinantly engineered E. coli glutathione reductase with I178T, R198M, R204L (SEQ ID NO:8), NMNH-specific (protein)
chain: B1 Glutathione reductase with R198M, R204L
[1]; based on catalytic efficiency measured in vitro
  cofactor specificity switch from native cofactor NADPH to NMNH: 60,000 fold
[1]
  Km: > 1.5 mM
[1]; vs Ec Gor wild type
  catalytic efficiency (kcat/Km) for NMNH, fold higher than the wild type: ~4 fold
[2]; concentrations up to 4 mM NAD(P)H
  saturation of activity with natural cofactors: could not be saturated
[2]; enzyme could not be saturated, 96 mM Tris-Cl pH 7.5, 2.5 mM GSSG
  Km: > 1500 µM
[2]; vs Ec Gor wild type
  reduction of catalytic efficiency for NADPH compared to Ec Gor wild type: ~15,000 fold
[2]; vs I178T single mutant
  reduction of catalytic efficiency for NADPH compared to I178T single mutant: ~9,000 fold
[3]; vs Ec Gor I178T
  change in NMNH-dependent activity on adding R198M-R204L to Ec Gor I178T: only a modest decrease
E. coli SHuffle strain
  growth of SHuffle strain harboring the Gor variant: supporting growth only with NMN^+ cycling; also recorded: only grows with NMNH regeneration
[4]
  Km: > 1.5 mM
[4]; vs I178T
  decrease of catalytic efficiency for NADH by the additional R198M-R204L mutations: ~2 fold
